Drawing on PMC8295500, “Co-Immobilized Capillary Enzyme Reactor Based on Beta-Secretase1 and Acetylcholinesterase: A Model for Dual-Ligand Screening” (Frontiers in Chemistry, 2021), this text covers Km for one protein.

Substrate in the data set: CC(=O)OCC[N+](C)(C)C
Briefly: purified protein. The format is biochemical, Homo sapiens.

B1: acetylcholinesterase (huAChE) (Homo sapiens) (protein)
chain: EGREDAELLVTVRGGRLRGIRLKTPGGPVSAFLGIPFAEPPMGPRRFLPPEPKQPWSGVVDATTFQSVCYQYVDTLYPGFEGTEMWNPNRELSEDCLYLNVWTPYPRPTSPTPVLVWIYGGGFYSGASSLDVYDGRFLVQAERTVLVSMNYRVGAFGFLALPGSREAPGNVGLLDQRLALQWVQENVAAFGGDPTSVTLFGESAGAASVGMHLLSPPSRGLFHRAVLQSGAPNGPWATVGMGEARRRATQLAHLVGCPPGGTGGNDTELVACLRTRPAQVLVNHEWHVLPQESVFRFSFVPVVDGDFLSDTPEALINAGDFHGLQVLVGVVKDEGSYFLVYGAPGFSKDNESLISRAEFLAGVRVGVPQVSDLAAEAVVLHYTDWLHPEDPARLREALSDVVGDHNVVCPVAQLAGRLAAQGARVYAYVFEHRASTLSWPLWMGVPHGYEIEFIFGIPLDPSRNYTAEEKIFAQRLMRYWANFARTGDPNEPRDPKAPQWPPYTAGAQQYVSLDLRPLEVRRGLRAQACAFWNRFLPKLLSATDTLDEAERQWKAEFHRWSSYMVHWKNQFDHYSKQDRCSDL
notes: human recombinant, expressed in HEK 293 cells; immobilized on fused silica capillary
In general, Km refers to the concentration of substrate that gives half-maximal velocity. For B1, the Michaelis-Menten constant (Km) was 23.3 ± 1 µM.
